Data taken from patent publication US20050260153, “Facilitation of iontophoresis using charged moieties” (published 2005).

Legend:
Settings in all cases: tags: 125I-labelled; chain copies: 2
VEGF165 [1] = biological target: T1, VEGF165 (UniProt P15692-4 P15692-4:27-191); assay: competition; CMC conjugates inhibit VEGF/Flt-1 binding better than non-enhanced aptamer; CMC alone no effect; values in figure
VEGF165 [2] = biological target: T1, VEGF165; assay: competition; VEGF/Flt-1 inhibition more effective than 10K linear; values in figure
VEGF165 [3] = biological target: T1, VEGF165; assay: competition; VEGF/Flt-1 inhibition less effective than 30K linear; values in figure
VEGF165 [4] = biological target: T1, VEGF165; assay: competition; dextran conjugates inhibit VEGF/Flt-1 binding better than non-enhanced aptamer; dextran alone no effect; values in figure
VEGF165 [5] = biological target: T1, VEGF165; assay: competition; 3'-PEG more effective than non-enhanced aptamer in inhibiting VEGF/Flt-1 binding; values in figure
VEGF165 [6] = biological target: T1, VEGF165; assay: competition; VEGF/Flt-1 inhibition less effective than 20K/20K branched; values in figure
VEGF165 [7] = biological target: T1, VEGF165; assay: competition; inhibits 125I-VEGF165 binding to Flt-1/Fc; much more effective than EYE002; PBS, 1 mM CaCl2, 1 mM MgCl2, 0.01% HSA, pH 7.4, 37 C; IC50 only in figure
Protocol: Each well is then washed with 300 μL of binding buffer (PBS with 1 mM calcium chloride, 1 mM magnesium chloride, 0.01% HSA, PH 7.4) at room temperature twice. For KDR/Fc, 0.25 picomole (85 ng) of the chimeric receptor in 100 μL of binding buffer is added into the first 11 wells, whereas the twelfth well receive 0.5 picomole (118 ng) of human ICAM-1/Fc chimera protein as the background control well. For Flt-1/Fc, 0.125 picomole (30.8 ng) of the chimeric receptor in 100 μL of binding buffer each is added into the first 11 wells, whereas the background control well (#12) receive 0.5 picomole (118 ng) of human ICAM-1/Fc chimera protein. For neuropilin-1/Fc, 0.2 picomole (48 ng) of the chimeric receptor in 100 μl of binding buffer is added to all 12 wells. The chimeric receptors and human ICAM-1/Fc protein are captured onto the well by binding to the immobilized anti-human IgG₁ Fc fragment-specific antibody in each well at room temperature for 2 to 3 hour. […]
A set of 10 five-fold dilutions of the Pegaptanib (tube #1 to #10) ranging from 1 μM (or 2 μM) to 0.512 picomolar (pM) (or 1.024 pM) are each mixed with about 0.01 μCi of ¹²⁵I-VEGF₁₆₅ in binding buffer (PBS with 1 mM calcium chloride, 1 mM Magnesium Chloride, 0.01% HSA, pH 7.4) in non-stick 1.5 mL microfuge tubes, in a total 100 μL final volume each. […] The radioactivity of each well is determined by scintillation counting.

T1 sequence (P15692 other isoform, or with tags, fused parts or gaps): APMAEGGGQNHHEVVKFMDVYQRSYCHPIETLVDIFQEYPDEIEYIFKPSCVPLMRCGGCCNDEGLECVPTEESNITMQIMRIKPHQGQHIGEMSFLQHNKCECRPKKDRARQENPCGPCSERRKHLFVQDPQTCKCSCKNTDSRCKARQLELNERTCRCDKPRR

B1: 5'-CMC VEGF aptamer conjugate (ssRNA)
RNA: CGGAAUCAGUGAAUGCUUAUACAUCCG
modifications: 2'-F on C and U, 2'-OMe on G and A except unmodified ribo A at positions 4 and 5; 5'-carboxymethyl cellulose (about 50 kDa)
**Q.** Does B1 bind (VEGF165 [1])?
**A.** Result: binds

B2: 30K linear PEG VEGF aptamer conjugate (ssRNA)
RNA: CGGAAUCAGUGAAUGCUUAUACAUCCG
modifications: 2'-F on C and U, 2'-OMe on G and A except unmodified ribo A at positions 4 and 5; PEG 30K linear
**Q.** Does B2 bind (VEGF165 [2])?
**A.** Result: binds

B3: 10K linear PEG VEGF aptamer conjugate (ssRNA)
RNA: CGGAAUCAGUGAAUGCUUAUACAUCCG
modifications: 2'-F on C and U, 2'-OMe on G and A except unmodified ribo A at positions 4 and 5; PEG 10K linear
**Q.** Does B3 bind (VEGF165 [3])?
**A.** Result: binds

B4: 5'-dextran VEGF aptamer conjugate (ssRNA)
RNA: CGGAAUCAGUGAAUGCUUAUACAUCCG
modifications: 2'-F on C and U, 2'-OMe on G and A except unmodified ribo A at positions 4 and 5; 5'-dextran (e.g. 40 kDa)
**Q.** Does B4 bind (VEGF165 [4])?
**A.** Result: binds

B5: 3'-PEG VEGF aptamer conjugate (ssRNA)
RNA: CGGAAUCAGUGAAUGCUUAUACAUCCG
modifications: 2'-F on C and U, 2'-OMe on G and A except unmodified ribo A at positions 4 and 5; 3'-PEG
**Q.** Does B5 bind (VEGF165 [5])?
**A.** Result: binds

B6: 5K/5K branched PEG VEGF aptamer conjugate (ssRNA)
RNA: CGGAAUCAGUGAAUGCUUAUACAUCCG
modifications: 2'-F on C and U, 2'-OMe on G and A except unmodified ribo A at positions 4 and 5; PEG 5K/5K branched
**Q.** Does B6 bind (VEGF165 [6])?
**A.** Result: binds

B7: Pegaptanib (EYE001, Macugen, MacI; 20K/20K branched 5'-PEG VEGF aptamer) (ssRNA)
RNA: CGGAAUCAGUGAAUGCUUAUACAUCCG
modifications: 2'-F on C and U, 2'-OMe on G and A except unmodified ribo A at positions 4 and 5; 5'-PEG 40 kDa branched via amino linker; 3'-3' dT cap
**Q.** Does B7 bind (VEGF165 [7])?
**A.** Result: binds
